T1: Recombinant Human IL-17 (human, UniProt Q16552 20-155, limits assumed)
T1 sequence (looked up): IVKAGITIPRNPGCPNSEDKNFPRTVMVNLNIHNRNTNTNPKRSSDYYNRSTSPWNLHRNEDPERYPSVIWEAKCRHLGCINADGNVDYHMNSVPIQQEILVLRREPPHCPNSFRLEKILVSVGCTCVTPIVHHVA


How the values were obtained:
Recombinant Human IL-1β = Recombinant Human IL-1β (human, UniProt P01584 117-269); test: cell-based or functional assay
Recombinant Human IL-17 = target: T1, Recombinant Human IL-17; test: cell-based or functional assay

| Binder | C-Terminal VD IL-1β Neutralization Assay EC50 (Recombinant Human IL-1β) | N-terminal VD IL-17 Neutralization Assay EC50 (Recombinant Human IL-17) | N-Terminal VD IL-1β Neutralization Assay EC50 (Recombinant Human IL-1β) | C-terminal VD IL-17 Neutralization Assay EC50 (Recombinant Human IL-17) |
| --- | --- | --- | --- | --- |
| DVD1614 (bispecific antibody, human IgG1, kappa) heavy: not shown light: EIVLTQSPDFQSVTPKEKVTITCRASQNIGSELHWYQQKPDQSPKLLIKYASHSISGVPSRFSGSGSGTDFTLTINGLEAEDAATYYCHQSDTLPHTFGQGTKVDIKRTVAAPSVFIFPPDTQVTQSPSSLSASVGDRVTITCITSTDIDVDMNWYQQKPGKPPKLLISQGNTLRPGVPSRFSSSGSGTDFTFTISSLQPEDFATYYCLQSDNLPLTFGQGTKLEIKRTVAAPSVFIFPPSDEQLKSGTASVVCLLNNFYPREAKVQWKVDNALQSGNSQESVTEQDSKDSTYSLSSTLTLSKADYEKHKVYACEVTHQGLSSPVTKSFNRGEC | 0.801 nM | 0.0142 nM |  |  |
| DVD1612 (bispecific antibody, human IgG1, kappa) heavy: not shown light: EIVLTQSPDFQSVTPKEKVTITCRASQNIGSELHWYQQKPDQSPKLLIKYASHSISGVPSRFSGSGSGTDFTLTINGLEAEDAATYYCHQSDTLPHTFGQGTKVDIKRTVAAPSVFIFPPDIQMTQSPSSLSASVGDRVTITCRASGNIHNYLTWYQQTPGKAPKLLIYNAKTLADGVPSRFSGSGSGTDYTFTISSLQPEDIATYYCQHFWSIPYTFGQGTKLQITRTVAAPSVFIFPPSDEQLKSGTASVVCLLNNFYPREAKVQWKVDNALQSGNSQESVTEQDSKDSTYSLSSTLTLSKADYEKHKVYACEVTHQGLSSPVTKSFNRGEC | 0.153 nM | 0.0238 nM |  |  |
| DVD1613 (bispecific antibody, human IgG1, kappa) heavy: not shown light: DTQVTQSPSSLSASVGDRVTITCITSTDIDVDMNWYQQKPGKPPKLLISQGNTLRPGVPSRFSSSGSGTDFTFTISSLQPEDFATYYCLQSDNLPLTFGQGTKLEIKRTVAAPSVFIFPPEIVLTQSPDFQSVTPKEKVTITCRASQNIGSELHWYQQKPDQSPKLLIKYASHSISGVPSRFSGSGSGTDFTLTINGLEAEDAATYYCHQSDTLPHTFGQGTKVDIKRTVAAPSVFIFPPSDEQLKSGTASVVCLLNNFYPREAKVQWKVDNALQSGNSQESVTEQDSKDSTYSLSSTLTLSKADYEKHKVYACEVTHQGLSSPVTKSFNRGEC |  |  | 0.246 nM | 0.101 nM |
| DVD1616 (bispecific antibody, human IgG1, kappa) heavy: not shown light: EIVLTQSPDFQSVTPKEKVTITCRASQNIGSELHWYQQKPDQSPKLLIKYASHSISGVPSRFSGSGSGTDFTLTINGLEAEDAATYYCHQSDTLPHTFGQGTKVDIKRTVAAPSVFIFPPDTVVTQSPAFLSVTPGEKVTITCITSTDIDVDMNWYQQKPDQPPKLLISQGNTLRPGVPSRFSSSGSGTDFTFTISSLEAEDAATYYCLQSDNLPLTFGQGTKLEIKRTVAAPSVFIFPPSDEQLKSGTASVVCLLNNFYPREAKVQWKVDNALQSGNSQESVTEQDSKDSTYSLSSTLTLSKADYEKHKVYACEVTHQGLSSPVTKSFNRGEC | 1.12 nM | 0.0062 nM |  |  |
| DVD1615 (bispecific antibody, human IgG1, kappa) heavy: not shown light: DTVVTQSPAFLSVTPGEKVTITCITSTDIDVDMNWYQQKPDQPPKLLISQGNTLRPGVPSRFSSSGSGTDFTFTISSLEAEDAATYYCLQSDNLPLTFGQGTKLEIKRTVAAPSVFIFPPEIVLTQSPDFQSVTPKEKVTITCRASQNIGSELHWYQQKPDQSPKLLIKYASHSISGVPSRFSGSGSGTDFTLTINGLEAEDAATYYCHQSDTLPHTFGQGTKVDIKRTVAAPSVFIFPPSDEQLKSGTASVVCLLNNFYPREAKVQWKVDNALQSGNSQESVTEQDSKDSTYSLSSTLTLSKADYEKHKVYACEVTHQGLSSPVTKSFNRGEC |  |  | 0.191 nM | 0.061 nM |

Further lines, results first:

| C-Terminal VD IL-1β Neutralization Assay EC50 (Recombinant Human IL-1β) | N-terminal VD IL-17 Neutralization Assay EC50 (Recombinant Human IL-17) | N-Terminal VD IL-1β Neutralization Assay EC50 (Recombinant Human IL-1β) | C-terminal VD IL-17 Neutralization Assay EC50 (Recombinant Human IL-17) | Binder |
| --- | --- | --- | --- | --- |
| 2.75 nM | 0.0045 nM |  |  | DVD1618 (bispecific antibody, human IgG1, kappa) heavy: not shown light: EIVLTQSPDFQSVTPKEKVTITCRASQNIGSELHWYQQKPDQSPKLLIKYASHSISGVPSRFSGSGSGTDFTLTINGLEAEDAATYYCHQSDTLPHTFGQGTKVDIKRTVAAPSVFIFPPETTVTQSPSSLSASVGDRVTITCITSTDIDVDMNWYQQKPGKPPKLLISQGNTLRPGVPSRFSSSGSGTDFTFTISSLQPEDFATYYCLQSDNLPLTFGQGTKLEIKRTVAAPSVFIFPPSDEQLKSGTASVVCLLNNFYPREAKVQWKVDNALQSGNSQESVTEQDSKDSTYSLSSTLTLSKADYEKHKVYACEVTHQGLSSPVTKSFNRGEC |
|  |  | 0.139 nM | 0.0345 nM | DVD1619 (bispecific antibody, human IgG1, kappa) heavy: not shown light: DIQMTQSPSSLSASVGDRVTITCRASGNIHNYLTWYQQTPGKAPKLLIYNAKTLADGVPSRFSGSGSGTDYTFTISSLQPEDIATYYCQHFWSIPYTFGQGTKLQITRTVAAPDIQMTQSPSSLSASVGDRVTITCRASSGIISYIDWFQQKPGKAPKRLIYATFDLASGVPSRFSGSGSGTDYTLTISSLQPEDFATYYCRQVGSYPETFGQGTKLEIKRTVAAPSVFIFPPSDEQLKSGTASVVCLLNNFYPREAKVQWKVDNALQSGNSQESVTEQDSKDSTYSLSSTLTLSKADYEKHKVYACEVTHQGLSSPVTKSFNRGEC |
|  |  | 0.0114 nM | 0.0397 nM | DVD1621 (bispecific antibody, human IgG1, kappa) heavy: not shown light: DIQMTQSPSSLSASVGDRVTITCRASGNIHNYLTWYQQTPGKAPKLLIYNAKTLADGVPSRFSGSGSGTDYTFTISSLQPEDIATYYCQHFWSIPYTFGQGTKLQITRTVAAPDIQMTQSPSSLSASVGDRVTITCRASSGIISYIDWFQQKPGKAPKRLIYATFDLASGVPSRFSGSGSGTDYTLTISSLQPEDFATYYCRQVGSYPETFGQGTKLEIKRTVAAPSVFIFPPSDEQLKSGTASVVCLLNNFYPREAKVQWKVDNALQSGNSQESVTEQDSKDSTYSLSSTLTLSKADYEKHKVYACEVTHQGLSSPVTKSFNRGEC |
| 17.4 nM | 0.0067 nM |  |  | DVD1620 (bispecific antibody, human IgG1, kappa) heavy: not shown light: DIQMTQSPSSLSASVGDRVTITCRASSGIISYIDWFQQKPGKAPKRLIYATFDLASGVPSRFSGSGSGTDYTLTISSLQPEDFATYYCRQVGSYPETFGQGTKLEIKRTVAAPDIQMTQSPSSLSASVGDRVTITCRASGNIHNYLTWYQQTPGKAPKLLIYNAKTLADGVPSRFSGSGSGTDYTFTISSLQPEDIATYYCQHFWSIPYTFGQGTKLQITRTVAAPSVFIFPPSDEQLKSGTASVVCLLNNFYPREAKVQWKVDNALQSGNSQESVTEQDSKDSTYSLSSTLTLSKADYEKHKVYACEVTHQGLSSPVTKSFNRGEC |
| 3.92 nM | 0.0083 nM |  |  | DVD1622 (bispecific antibody, human IgG1, kappa) heavy: not shown light: DIQMTQSPSSLSASVGDRVTITCRASSGIISYIDWFQQKPGKAPKRLIYATFDLASGVPSRFSGSGSGTDYTLTISSLQPEDFATYYCRQVGSYPETFGQGTKLEIKRTVAAPDIQMTQSPSSLSASVGDRVTITCRASGNIHNYLTWYQQTPGKAPKLLIYNAKTLADGVPSRFSGSGSGTDYTFTISSLQPEDIATYYCQHFWSIPYTFGQGTKLQITRTVAAPSVFIFPPSDEQLKSGTASVVCLLNNFYPREAKVQWKVDNALQSGNSQESVTEQDSKDSTYSLSSTLTLSKADYEKHKVYACEVTHQGLSSPVTKSFNRGEC |
|  |  | 0.247 nM | 0.0424 nM | DVD1617 (bispecific antibody, human IgG1, kappa) heavy: not shown light: ETTVTQSPSSLSASVGDRVTITCITSTDIDVDMNWYQQKPGKPPKLLISQGNTLRPGVPSRFSSSGSGTDFTFTISSLQPEDFATYYCLQSDNLPLTFGQGTKLEIKRTVAAPSVFIFPPEIVLTQSPDFQSVTPKEKVTITCRASQNIGSELHWYQQKPDQSPKLLIKYASHSISGVPSRFSGSGSGTDFTLTINGLEAEDAATYYCHQSDTLPHTFGQGTKVDIKRTVAAPSVFIFPPSDEQLKSGTASVVCLLNNFYPREAKVQWKVDNALQSGNSQESVTEQDSKDSTYSLSSTLTLSKADYEKHKVYACEVTHQGLSSPVTKSFNRGEC |

— patent publication US20120034160A1 (AbbVie / Abbott, published 2012)
